Numbering of substitutions follows the chain as printed. Names may count otherwise. Marks after values point to notes of the source that are not given here.
T1: HER4 receptor extracellular domain (ECD) (Homo sapiens, UniProt Q15303)
T1 construct: C-terminal His-tagged HER4 receptor extracellular domain (ECD) construct
T1 sequence (Q15303 26-651 limits assumed): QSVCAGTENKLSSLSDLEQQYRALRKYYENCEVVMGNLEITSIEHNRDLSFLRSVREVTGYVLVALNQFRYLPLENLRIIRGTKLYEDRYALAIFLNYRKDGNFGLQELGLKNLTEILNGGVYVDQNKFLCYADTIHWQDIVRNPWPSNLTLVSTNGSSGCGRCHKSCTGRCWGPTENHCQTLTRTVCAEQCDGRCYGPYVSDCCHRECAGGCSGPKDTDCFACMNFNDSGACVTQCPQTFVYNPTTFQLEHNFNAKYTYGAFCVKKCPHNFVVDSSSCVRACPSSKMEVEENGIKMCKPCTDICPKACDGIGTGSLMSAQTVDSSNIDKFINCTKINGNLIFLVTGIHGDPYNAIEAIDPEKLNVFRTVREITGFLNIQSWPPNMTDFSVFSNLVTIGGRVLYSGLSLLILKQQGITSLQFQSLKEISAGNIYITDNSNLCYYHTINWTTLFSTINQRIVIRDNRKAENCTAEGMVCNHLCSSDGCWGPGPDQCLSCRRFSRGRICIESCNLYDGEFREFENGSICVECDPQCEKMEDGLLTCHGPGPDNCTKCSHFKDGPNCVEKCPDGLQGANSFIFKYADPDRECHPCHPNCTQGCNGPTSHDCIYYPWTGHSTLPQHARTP

B1: Example 10: NRG4 D1G/V22Q/E44K, (GGGGS)3 linker, SEQ ID NO: 19, fused to IgG Fc dimer SEQ ID NO: 6 and 7 (protein)
chain 1: GGGGSGGGGSGGGGSGHEEPCGPSHKSFCLNGGLCYQIPTIPSPFCRCVENYTGARCEKVFL
chain 2: ECPPCPAPPVAGPSVFLFPPKPKDTLMISRTPEVTCVVVDVSHEDPEVQFNWYVDGVEVHNAKTKPREEQFNSTFRVVSVLTVVHQDWLNGKEYKCKVSNKGLPAPIEKTISKTKGQPREPQVYTLPPSREEMTKNQVSLWCLVKGFYPSDIAVEWESNGQPENNYKTTPPVLDSDGSFFLYSKLTVDKSRWQQGNVFSCSVMHEALHNHYTQKSLSLSPG
chain 3: B1 chain 2 with W141S, L143A, Y182V

Tests used:
[1] = molecular target: T1, HER4 receptor extracellular domain (ECD); assay: HER4/NRG-Fc binding assay (ELISA) for screening NRG4 variants
Procedure: A binding assay is utilized to perform high-throughput screening of NRG4 variant Fc fusion proteins to HER4 receptor, to identify affinity-driven variants with the potential to increase receptor activation and signaling. ELISA plates are coated with an anti-His tag antibody at 2 μg/ml in PBS to facilitate the standardized capture of a C-terminal His-tagged HER4 receptor extracellular domain (ECD) construct after blocking the plate with 1% BSA/PBS/0.1% Tween 20 (HER4 ECD at 5 μg/ml). Saturating amounts of unpurified NRG4-Fc variants in expression media (Starting at 10 μg/ml with serial dilutions in 1% BSA/PBS/0.1% Tween 20) are incubated with the captured receptor for 1 hour. After washing, bound variant NRG4-Fc is detected colorimetrically with an anti-human Fc-specific alkaline phosphatase secondary detection reagent to quantitate binding. Incubation times of variant binding to receptor or durations of the subsequent wash steps are varied to further identify binding variants driven by affinity on-rate and off-rate, respectively.

[2] = tested on: rat model of heart failure with reduced ejection fraction (HFrEF); assay: Rat MI model, captopril, Example 10 or combination, echocardiography; format: in vivo; parameters: Left Ventricle Diameter (end diastole): unit not given here
Procedure: A nonclinical efficacy pharmacology study is conducted in a rat model of heart failure with reduced ejection fraction (HFrEF) to evaluate cardiac function and structure changes after captopril treatment, Example 10 treatment or combination treatment.
The left coronary artery is permanently ligated. All rats are individually housed in a temperature and humidity controlled room and maintained on a 12 hour light/dark cycle. Two to three weeks after surgery, rats undergo transthoracic echocardiography for determination of ejection fraction (EF %) and left ventricle dimensions (LVD) using a Vevo 2100 ultrasound system. Rats are randomized across treatment groups according to EF % and LVD.
Measurements of EF % and LVD are expressed as mean values±standard error (SE). Statistical analysis is performed with JMP® 13 software (SAS Institute, Inc.; Cary, N.C.) and Dunnett's Test is used for statistical comparisons across treatment groups. Statistical significance is accepted at P<0.05.
Three weeks after MI surgery, animals are randomized to 2 treatment groups (Placebo or captopril, 2 g/L in drinking water, ad lib) according to EF % and LVD. Three weeks and four weeks after dosing starts, cardiac function (EF %) and structure (LVD) are evaluated by transthoracic echocardiography. Animals are further randomized to additional groups based on cardiac function (EF %) and structure (LVD) to the following groups: Placebo, Example 10, captopril and Example 10+captopril. Animals in the Example 10 groups receive a single injection on week 4 after the 2nd randomization. Cardiac function (EF %) and structure (LVD) are evaluated on week 5 and 6.

[3] = Plasma pharmacokinetics in rats (toxicology studies); settings: rat, in vivo, sc, 0.3 mg/kg
Procedure: Example 11 is administered in a single 3 mg/kg dose to male and female monkeys by SC bolus injection.

[4] = tested on: rats; assay: Toxicology study in rats, cardiac tissue inspection; settings: single SC injection of 0.3 mg/kg
[5] = Dose # 1: Example 1 10.65, WT NRG1 10, WT NRG4 17 μg/mL
[6] = Dose # 2: Example 1 5.325, WT NRG1 5, WT NRG4 8.5 μg/mL
[7] = Dose # 3: Example 1 2.6625, WT NRG1 2.5, WT NRG4 4.25 μg/mL
[8] = Dose # 4: Example 1 1.33125, WT NRG1 1.25, WT NRG4 2.125 μg/mL
[9] = Dose # 5: Example 1 0.665625, WT NRG1 0.625, WT NRG4 1.0625 μg/mL
[10] = Dose # 6: Example 1 0.332813, WT NRG1 0.3125, WT NRG4 0.53125 μg/mL
[11] = Dose # 7: Example 1 0.166406, WT NRG1 0.15625, WT NRG4 0.265625 μg/mL
[12] = Dose # 8: Example 1 0.083203, WT NRG1 0.078125, WT NRG4 0.132813 μg/mL
[13] = Dose # 9: Example 1 0.041602, WT NRG1 0.039063, WT NRG4 0.066406 μg/mL
[14] = Dose # 10: Example 1 0.020801, WT NRG1 0.019531, WT NRG4 0.033203 μg/mL
[15] = Dose # 11: Example 1 0.0104, WT NRG1 0.009766, WT NRG4 0.016602 μg/mL
[16] = Dose # 12: Example 1 0.0052, WT NRG1 0.004883, WT NRG4 0.008301 μg/mL
[17] = Week 4 (2nd randomization; before the single injection of Example 10)
[18] = Week 5 (single injection of Example 10 on week 4; captopril 2 g/L in drinking water)
[19] = Week 6 (single injection of Example 10 on week 4; captopril 2 g/L in drinking water)

| Molecule | O.D. 405, binding to HER4 extracellular domain [1, 5] | O.D. 405, binding to HER4 extracellular domain [1, 6] | O.D. 405, binding to HER4 extracellular domain [1, 7] | O.D. 405, binding to HER4 extracellular domain [1, 8] | O.D. 405, binding to HER4 extracellular domain [1, 9] | O.D. 405, binding to HER4 extracellular domain [1, 10] | O.D. 405, binding to HER4 extracellular domain [1, 11] | O.D. 405, binding to HER4 extracellular domain [1, 12] | O.D. 405, binding to HER4 extracellular domain [1, 13] | O.D. 405, binding to HER4 extracellular domain [1, 14] | O.D. 405, binding to HER4 extracellular domain [1, 15] | O.D. 405, binding to HER4 extracellular domain [1, 16] | Ejection Fraction [2, 17] [%] | Left Ventricle Diameter (end diastole) [2, 17] | Ejection Fraction [2, 18] | Left Ventricle Diameter (end diastole) [2, 18] | Ejection Fraction [2, 19] | Left Ventricle Diameter (end diastole) [2, 19] | duration of detectable plasma concentrations [3] [h] | inspections of tissue (cardiac toxicity) [4] |
| --- | --- | --- | --- | --- | --- | --- | --- | --- | --- | --- | --- | --- | --- | --- | --- | --- | --- | --- | --- | --- |
| WT NRG1: wild type human NRG1; native peptide purchased from Reprokine in Tables 7-9; comparator in the screening assays of Tables 4 and 6 | 1.501 | 1.439 | 1.399 | 1.31 | 1.27 | 1.022 | 0.8 | 0.514 | 0.316 | 0.179 | 0.114 | 0.084 |  |  |  |  |  |  |  |  |
| WT NRG4: wild type human NRG4 (SEQ ID NO:1); parental hFcNRG4 in screening (Tables 4-6), native peptide from Reprokine in Tables 7-9 (DHEEPCGPSHKSFCLNGGLCYVIPTIPSPFCRCVENYTGARCEEVFL; listed as Homo sapiens) | 0.651 | 0.597 | 0.485 | 0.347 | 0.224 | 0.154 | 0.111 | 0.088 | 0.071 | 0.07 | 0.066 | 0.066 |  |  |  |  |  |  |  |  |
| B1 |  |  |  |  |  |  |  |  |  |  |  |  | 33.3 | 9.33 | 46.5* % | 9.35 | 46.0* % | 9.01 | > 168 | cardiac degeneration and necrosis |

Reference: patent publication US11242370B2, “Neuregulin-4 compounds and methods of use” (Eli Lilly and Company, priority 2019, dated 2022)
